{
  "source": "paper doi:10.1101/2024.11.23.624830",
  "about": "(bioRxiv, 2024)",
  "target": "the molecule itself",
  "test": "single-molecule photobleaching step analysis",
  "data": [
    {"protein": "EmrE with a TC-tag (natural protein, FlAsH dye bound covalently to the tetracysteine tag) MNPYIYLGGAILAEVIGTTLMKFSEGFTRLWPSVGTIICYCASFWLLAQTLAYIPTGIAYAIWSGVGIVLISLLSWGFFGQRLDLPAIIGMMLICAGVLIINLLSRSTPH", "values": [
      {"measurement": "stoichiometry N", "value": 2}
    ]}
  ]
}
